Test results reported in patent US20240350597A1 (UNIVERSITY COLLEGE DUBLIN, published 2024).

Key:
[1] = biological target: T1, Transmembrane serine protease 2 (TMPRSS2) (UniProt O15393 106-492); test: ratio of second order inhibition rate constants, with A1AT as reference
T1 construct: also called rTMPRSS2

[2] = biological target: T1, Transmembrane serine protease 2 …; test: cell-based or functional assay

T1 sequence (O15393 106-492 limits assumed): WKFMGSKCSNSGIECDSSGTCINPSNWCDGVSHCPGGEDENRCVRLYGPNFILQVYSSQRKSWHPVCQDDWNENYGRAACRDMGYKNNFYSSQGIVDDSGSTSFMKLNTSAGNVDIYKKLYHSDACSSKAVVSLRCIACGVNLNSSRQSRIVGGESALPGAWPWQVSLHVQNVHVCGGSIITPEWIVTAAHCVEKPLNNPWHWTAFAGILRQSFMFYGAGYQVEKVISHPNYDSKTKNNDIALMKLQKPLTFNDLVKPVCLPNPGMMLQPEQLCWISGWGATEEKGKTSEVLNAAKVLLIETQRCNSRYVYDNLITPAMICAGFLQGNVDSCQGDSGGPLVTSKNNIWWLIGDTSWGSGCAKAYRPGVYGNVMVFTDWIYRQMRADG

B1: SerpinB3-TMP variant (other)
chain: MNSLSEANTKFMFDLFQQFRKSKENNIFYSPISITSALGMVLLGAKDNTAQQIKKVLHFDQVTENTTGKAATYHVDRSGNVHHQFQKLLTEFNKSTDAYELKIANKLFGEKTYLFLQEYLDAIKKFYQTSVESVDFANAPEESRKKINSWVESQTNEKIKNLIPEGNIGSNTTLVLVNAIYFKGQWEKKFNKEDTKEEKFWPNKNTYKSIQMMRQYTSFHFASLEDVQAKVLEIPYKGKDLSMIVLLPNEIDGLQKLEEKLTAEKLMEWTSLQNMRETRVDLHLPRFKVEESYDLKDTLRTMGMVDIFNGDADLSGMTGSRGLVLSGVLHKAFVEVTEEGAEAAAATAVIQFRVSPTSTNEEFHCNHPFLFFIRQNKTNSILFYGRFSSP
notes: also called SerpinB3 anti-TMPRSS2; modified SerpinB3-TMP
- fold increase in TMPRSS2 specificity (k2) over A1AT [1]: 18 fold
- TMPRSS2 inhibition at a 5:1 serpin:protease ratio (residual activity on Boc-QAR-AMC after 10 min incubation) [2]: 92%
